In one test the test system is human platelets. As to the kind of experiment: Collagen I-induced platelet aggregation in platelet rich plasma. The note with it: 10 μM, 2 μg/mL collagen I, saline 85%±19%, mean ± SD, four donors. The test is classed as cell-based.
The target of a further test is GST-tagged α2A domain (UniProt P17301). As to the kind of experiment: ELISA. A general note: An ELISA detects its analyte on a solid surface through an enzyme-linked reagent.
Chain of UniProt P17301 (P17301 30-1181): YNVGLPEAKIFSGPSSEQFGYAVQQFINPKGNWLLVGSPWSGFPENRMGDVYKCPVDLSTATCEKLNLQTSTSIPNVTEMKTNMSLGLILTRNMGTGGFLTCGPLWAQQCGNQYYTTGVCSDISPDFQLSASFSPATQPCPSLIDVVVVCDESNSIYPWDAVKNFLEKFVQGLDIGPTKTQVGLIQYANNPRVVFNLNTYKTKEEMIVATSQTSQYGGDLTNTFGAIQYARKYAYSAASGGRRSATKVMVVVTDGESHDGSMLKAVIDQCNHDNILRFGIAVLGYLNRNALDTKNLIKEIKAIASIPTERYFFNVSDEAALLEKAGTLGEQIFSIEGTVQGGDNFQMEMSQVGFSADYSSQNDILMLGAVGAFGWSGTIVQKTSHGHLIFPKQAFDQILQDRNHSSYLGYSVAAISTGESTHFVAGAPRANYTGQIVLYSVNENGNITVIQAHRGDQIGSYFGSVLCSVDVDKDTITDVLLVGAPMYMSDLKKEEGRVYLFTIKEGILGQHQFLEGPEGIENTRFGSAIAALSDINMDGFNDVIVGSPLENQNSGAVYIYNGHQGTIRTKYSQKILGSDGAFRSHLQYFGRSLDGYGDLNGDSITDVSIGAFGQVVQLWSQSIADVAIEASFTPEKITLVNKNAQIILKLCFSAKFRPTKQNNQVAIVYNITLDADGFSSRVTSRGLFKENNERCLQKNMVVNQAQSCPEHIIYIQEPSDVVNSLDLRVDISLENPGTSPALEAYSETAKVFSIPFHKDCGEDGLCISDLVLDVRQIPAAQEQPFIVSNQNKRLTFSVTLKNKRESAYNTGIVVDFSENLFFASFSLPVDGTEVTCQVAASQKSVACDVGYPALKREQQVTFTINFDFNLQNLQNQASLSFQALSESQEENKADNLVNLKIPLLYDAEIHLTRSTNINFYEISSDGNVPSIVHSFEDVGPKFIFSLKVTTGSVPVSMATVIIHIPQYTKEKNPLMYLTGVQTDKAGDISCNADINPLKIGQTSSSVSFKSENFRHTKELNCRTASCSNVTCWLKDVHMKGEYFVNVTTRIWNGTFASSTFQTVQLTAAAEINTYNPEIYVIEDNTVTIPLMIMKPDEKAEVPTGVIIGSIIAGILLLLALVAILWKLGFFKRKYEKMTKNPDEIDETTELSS

In the case of `CC(=O)Oc1cc2c(s1)CCN(C(C(=O)C1CC1)c1ccccc1F)C2` (stereo not drawn) [prasugrel], the “platelet aggregation, collagen-induced, in PRP” value with human platelets was 34%±18%. On to Vipegitide (peptide), for which the percent inhibition of GST-α2A binding to collagen I with GST-tagged α2A domain was 30%.

The compound Vipegitide-PEG2 (peptide) came in with a percent inhibition of GST-α2A binding to collagen I with GST-tagged α2A domain of 30%.

(Values after paper PMC4294129 (Drug Design, Development and Therapy, 2015).)
